{"source": "patent US20110027909A1", "about": "“Chimera Compositions and Methods of Use” (priority 2009, published 2011)", "key": {"CRF-BP_NK1R chimera": {"target": "T1, CRF-BP_NK1R chimera (Homo sapiens, UniProt P24387+P25103)", "T1 construct": "the construct used to create a CRF-BP(FL)_NK1R chimera; FLAG (N); expressed in transfected cells", "T1 sequence (P24387+P25103 fused, change not shown)": "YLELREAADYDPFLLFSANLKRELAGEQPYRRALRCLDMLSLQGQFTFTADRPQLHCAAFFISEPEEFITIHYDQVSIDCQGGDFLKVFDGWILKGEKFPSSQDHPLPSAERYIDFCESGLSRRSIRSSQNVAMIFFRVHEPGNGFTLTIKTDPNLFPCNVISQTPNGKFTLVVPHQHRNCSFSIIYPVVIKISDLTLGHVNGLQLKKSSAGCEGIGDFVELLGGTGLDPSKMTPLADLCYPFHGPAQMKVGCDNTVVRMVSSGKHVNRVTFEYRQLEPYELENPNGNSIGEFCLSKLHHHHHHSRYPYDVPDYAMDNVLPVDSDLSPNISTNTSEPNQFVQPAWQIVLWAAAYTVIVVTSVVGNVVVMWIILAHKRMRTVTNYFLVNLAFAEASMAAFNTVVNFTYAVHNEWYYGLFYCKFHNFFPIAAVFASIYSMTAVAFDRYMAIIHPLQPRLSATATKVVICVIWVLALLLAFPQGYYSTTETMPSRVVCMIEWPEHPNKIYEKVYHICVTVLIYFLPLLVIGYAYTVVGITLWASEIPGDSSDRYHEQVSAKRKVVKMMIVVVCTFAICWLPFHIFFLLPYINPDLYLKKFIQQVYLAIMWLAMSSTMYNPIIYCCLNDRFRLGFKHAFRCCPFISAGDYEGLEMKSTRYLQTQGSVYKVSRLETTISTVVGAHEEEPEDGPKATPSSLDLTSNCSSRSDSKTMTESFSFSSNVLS", "assay": "FLIPR intracellular calcium release, HEK-293 cells expressing CRF-BP_NK1R chimera", "assay_type": "cell-based", "conditions": "1 pM-10 μM, FIGS. 9, 10", "description": "The mammalian cells expressing the various isolated chimera constructs were tested for the ability of the chimera proteins to activate intracellular calcium release. The HEK-293 cells of Example 5 expressing the constructs of Example 4 were grown in 10% FBS in DMEM cell media with hygromycin (0.4%) as a selection reagent. Cells were plated out in 96-well plates (40 000 cells/well) in FBS/DMEM media. On the following day, cells were serum starved (1% FBS in DMEM; 100 μl/well) for 2 hours prior to testing."}, "IGF-BP2_CRFR chimera": {"tested_on": "IGF-BP2_CRFR chimera", "assay": "FLIPR intracellular calcium release, HEK-293 cells expressing IGF-BP2_CRFR2 chimera", "assay_type": "cell-based, human", "conditions": "CRF 1 pM-10 μM, FIG. 13", "method": "The mammalian cells expressing the various isolated chimera constructs were tested for the ability of the chimera proteins to activate intracellular calcium release. The HEK-293 cells expressing the constructs of Example 9 were grown in 10% FBS in DMEM cell media with hygromycin (0.4%) selection reagent. The cells were plated out in 96-well plates (40 000 cells/well) in FBS/DMEM media. On the following day, cells were serum starved (1% FBS in DMEM; 100 μl/well) for 2 hours prior to testing.\nThe cells were loaded with diluted FLIPR™ dye (100 μl) for one hour prior to testing with CRF. The selected hygromycin resistant cells were plated in 96-well clear bottom black microplates at a density of approximately 40,000 cells/well, in DMEM/10% FBS media. […]\n(§1) A FlexStation (Molecular Devices) fluorometric imaging plate reader was used to measure changes in intracellular Ca^2+. […] The machine was used in Flex mode, and the fluorescent intensity was measured from the bottom with the excitation at 485 nm and emission at 525 nm for 120 seconds at 21° C.\nThe results of the FLIPR experiments detecting the levels of intracellular calcium induced by activation of the chimeras with CRF are shown in FIG. 13. […] Results are expressed as the mean (±SEM) relative fluorescence units (RFU), calculated as agonist-induced maximum Ca^2+ peak/cell number×1000."}, "[1]": {"target": "T2, CRF-BP(10 Kd)_CRFR2 chimera (Homo sapiens, UniProt P24387+Q13324)", "T2 construct": "The CRF-BP (10 Kd) fragment is comprised of 88 amino acid residues (A235 to L322); DNA encoding the CRFR2 protein was amplified using the ssHA CRFR2_Zeo plasmid DNA template; FLAG (N); expressed in transfected cells", "T2 sequence (P24387+Q13324 with tags, fused parts or gaps)": "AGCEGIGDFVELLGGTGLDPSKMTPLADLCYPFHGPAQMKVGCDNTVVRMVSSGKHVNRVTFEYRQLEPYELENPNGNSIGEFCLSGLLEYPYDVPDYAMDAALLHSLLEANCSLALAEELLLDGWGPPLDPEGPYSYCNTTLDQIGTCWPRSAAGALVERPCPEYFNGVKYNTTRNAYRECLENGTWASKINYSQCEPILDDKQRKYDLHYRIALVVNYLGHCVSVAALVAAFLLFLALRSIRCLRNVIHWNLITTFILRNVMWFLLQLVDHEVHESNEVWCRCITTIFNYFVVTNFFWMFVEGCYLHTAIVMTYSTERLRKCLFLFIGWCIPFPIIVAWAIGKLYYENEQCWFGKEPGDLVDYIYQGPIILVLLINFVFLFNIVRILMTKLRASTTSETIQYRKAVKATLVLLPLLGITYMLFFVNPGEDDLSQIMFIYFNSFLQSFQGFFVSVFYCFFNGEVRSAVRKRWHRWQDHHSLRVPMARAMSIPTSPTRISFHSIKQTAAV", "assay": "FLIPR intracellular calcium release, HEK 293 cells expressing CRF-BP(10 Kd)_CRFR2 chimera", "assay_type": "cell-based", "method": "(§2) The mammalian cells expressing the isolated chimera constructs were tested for the ability of the chimera proteins to activate intracellular calcium release via signaling through Gq. HEK 293 cells of Example 2 expressing the constructs of Example 1 were grown in 10% FBS in DMEM cell media with hygromycin (0.4%) selection reagent. Cells were plated out in 96-well plates (40 000 cells/well) in FBS/DMEM media. On the following day, cells were serum starved (1% FBS in DMEM; 100 μl/well) for 2 hours prior to testing.\n(§3) Cells were loaded with diluted FLIPR™ dye (100 μl) for one hour prior to testing with CRF. The selected hygromycin resistant cells were plated in 96-well clear bottom black microplates at a density of approximately 40,000 cells/well, in DMEM/10% FBS media. […]\nas §1\nResults are expressed as the mean (±SEM) relative fluorescent units (RFUs), calculated as agonist-induced maximum Ca^2+ peak/cell number×1000."}, "[2]": {"tested_on": "untransfected HEK 293 cells", "assay": "Negative control calcium release, HEK 293 cells not transfected", "assay_type": "cell-based, human", "conditions": "FIG. 7", "method": "(§4) As a negative control, the effect of CRF on HEK 293 cells that had not been transfected or which expressed a recombinant dopamine receptor was measured."}, "[3]": {"tested_on": "recombinant dopamine receptor", "assay": "Negative control calcium release, HEK 293 cells expressing a recombinant dopamine receptor", "assay_type": "cell-based", "conditions": "HEK 293 cells expressing recombinant dopamine receptor; FIG. 7", "method": "as §4"}, "CRF-BP(FL)_CRFR2 chimera": {"target": "T3, CRF-BP(FL)_CRFR2 chimera (Homo sapiens, UniProt P24387+Q13324)", "T3 construct": "DNA encoding the CRFR2 protein was amplified using the ssHA CRFR2_Zeo plasmid DNA template; FLAG (N); expressed in transfected cells", "T3 sequence (P24387+Q13324 with tags, fused parts or gaps)": "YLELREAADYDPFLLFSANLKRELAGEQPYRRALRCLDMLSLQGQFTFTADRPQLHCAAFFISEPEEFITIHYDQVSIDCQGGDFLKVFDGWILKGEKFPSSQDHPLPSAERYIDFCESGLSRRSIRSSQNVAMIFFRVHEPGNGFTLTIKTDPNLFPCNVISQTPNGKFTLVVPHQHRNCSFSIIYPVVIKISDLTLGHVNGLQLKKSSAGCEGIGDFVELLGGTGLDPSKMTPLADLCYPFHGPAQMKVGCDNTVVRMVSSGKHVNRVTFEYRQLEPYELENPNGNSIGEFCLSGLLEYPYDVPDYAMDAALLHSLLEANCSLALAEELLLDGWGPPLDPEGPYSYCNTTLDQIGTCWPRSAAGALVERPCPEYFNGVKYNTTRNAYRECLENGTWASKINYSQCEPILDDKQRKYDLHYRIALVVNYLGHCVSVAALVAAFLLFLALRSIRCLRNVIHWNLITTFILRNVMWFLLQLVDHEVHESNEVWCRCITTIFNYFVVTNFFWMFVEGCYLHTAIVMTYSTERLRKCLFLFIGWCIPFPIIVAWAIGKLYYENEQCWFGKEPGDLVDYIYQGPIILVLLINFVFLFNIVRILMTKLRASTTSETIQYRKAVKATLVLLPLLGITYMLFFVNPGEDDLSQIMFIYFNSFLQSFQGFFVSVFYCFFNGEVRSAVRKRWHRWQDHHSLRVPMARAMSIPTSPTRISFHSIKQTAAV", "assay": "FLIPR intracellular calcium release, agonist mode, HEK 293 cells expressing full-length CRF-BP_CRFR2 chimera", "assay_type": "cell-based", "method": "as §2, §3, §1\nThe results of the FLIPR experiments detecting the levels of intracellular calcium induced by activation of the chimera with CRF are shown in FIGS. 3-5. […] Results are expressed as the mean (±SEM) relative fluorescent units (RFU), calculated as agonist-induced maximum Ca^2+ peak/cell number×1000."}, "[4]": {"conditions": "CRF, intracellular calcium release"}}, "data": [{"substance": "Corticotropin Releasing Factor [CRF]", "values": [{"measurement": "intracellular calcium release (RFU)", "setting": "CRF-BP_NK1R chimera", "result": "different levels of CRF-induced (1 pM-10 μM) intracellular calcium release in the HEK-293 cells corresponding to the concentration of CRF"}, {"measurement": "intracellular calcium release (RFU)", "setting": "IGF-BP2_CRFR chimera", "result": "different levels of CRF-induced (1 pM-10 μM) intracellular calcium release in the HEK-293 cells corresponding to the concentration of CRF"}, {"measurement": "intracellular calcium release (RFU)", "setting": "[1]; CRF 1 pM-10 μM, compared with full-length chimera, FIG. 6", "result": "even more robust signaling than the full-length CRF-BP_CRFR2 chimera"}, {"measurement": "signaling through the chimera compared with CRFR2 alone", "setting": "[1]; [4]", "result": "more effectively than CRF at CRFR2 alone"}, {"measurement": "intracellular calcium signaling", "setting": "[2]", "result": "did not display any significant signaling"}, {"measurement": "intracellular calcium signaling", "setting": "[3]", "result": "did not display any significant signaling"}, {"measurement": "intracellular calcium release (agonist-induced maximum Ca2+ peak, RFU)", "setting": "CRF-BP(FL)_CRFR2 chimera; 1 pM-10 μM, HEK 293 cells, FIGS. 3-5", "result": "increased as the concentration of CRF was increased"}, {"measurement": "signaling through the chimera compared with CRFR2 alone", "setting": "CRF-BP(FL)_CRFR2 chimera; [4]", "result": "more effectively than CRF at CRFR2 alone"}]}]}
